Assay [1] has as its target T1, recombinant human full-length TDP-43 (TAR DNA-binding protein 43), soluble (human, UniProt Q13148 1-414).
T1 construct: Used on Luminex beads, coated on ELISA plates, and immobilized or injected in SPR; also called FL TDP-43; TDP-43 protein
Kind of assay: SPR, immobilized soluble TDP-43. As to the method:
(§1) Binding avidity to soluble or aggregated FL TDP-43 was evaluated by determing the dissociation constants (KD) using surface plasmon resonance (SPR; Biacore T200, GE Healthcare Life Sciences). Recombinant human soluble or aggregated FL TDP-43 were immobilized on a CM5 Series S sensor chip (GE Healthcare Life Sciences) by amine coupling. Soluble TDP-43 was immobilized at a concentration of 5 µg/ml in 10 mM sodium acetate (pH 4.5) with a flow rate of 5 µl/min for 420 seconds resulting in an immobilization level of 150 RU. Aggregated TDP-43 was immobilized at a concentration of 50 µg/ml in 10 mM sodium acetate (pH 4.5) with a flow rate of 5 µl/min for 840 seconds resulting in an immobilization level of 110 RU. Biotinylated TP-73 peptide (aa 181-190 of SEQ ID NO:1) was immobilized on a Series S Sensor Chip SA (GE Healthcare Life Sciences) at a concentration of 5 µg/ml in PBS-P⁺ with a flow rate of 5 µl/min for 30 seconds resulting in an immobilization level of 400 RU. […] The antibodies were injected at a flow rate of 50 µl/min for 90 seconds contact time and 700 seconds dissociation phase followed by three regenerations with 10 mM glycine-HCl pH 1.7. For the optimized SPR protocol the antibodies were diluted 3-fold starting from 300 nM and dilute down to 1.2 nM and injected for 300 seconds at 30 µl/min followed by 600 seconds dissociation. The surface was regenerated by one injection with 10 mM glycine-HCl pH 1.7. Results obtained from binding kinetics were double-referenced using a blank flow cell and a buffer cycle and were evaluated with a global 1:1 fitting model with RI. Avidities for 11 antibodies and two Fab fragments are depicted in Table 8. […] In addition, some antibodies show preferential binding to aggregated TDP-43 as compared with soluble TDP-43.

Assay [2] concerns the target T1, recombinant human full-length TDP-43 …. Kind of assay: indirect ELISA, coated FL TDP-43. As to the method: Antibody binding to human FL TDP-43 was determined using an indirect ELISA. ELISA plate coating with 1 µg/ml human FL TDP-43 was performed overnight in carbonate buffer at 4° C. Plates were washed with 0.05% Tween-20/PBS and then blocked with 1% bovine serum albumin (BSA) in 0.05% Tween-20/PBS for 1 hour at 37° C. Antibodies purified from hybridoma supernatants were then added in a 3-fold serial dilution starting at 1 µg/ml, and incubated for 2 hours at 37° C. after which the plates were washed. An AP-conjugated anti-mouse IgG secondary antibody (Jackson Immunoresearch Laboratories, United Kingdom) was added at 1/1000 dilution in 0.05% Tween-20/PBS for 1 hour at 37° C. After the final wash, plates were incubated with pNPP (Sigma-Aldrich, Switzerland) phosphatase substrate solution, and read at 405 nm using an ELISA plate reader (Tecan, Switzerland).
(ELISA stands for enzyme-linked immunosorbent assay.)

Assay [3] deals with T2, recombinant human aggregated full-length TDP-43 (human, UniProt Q13148 1-414).
T2 construct: also called aggregated TDP-43; aggregated FL TDP-43
Kind of assay: SPR, immobilized aggregated TDP-43. As to the method:
as §1
In general terms: SPR reads the build-up and loss of mass on a sensor chip optically.

Assay [4] deals with T1, recombinant human full-length TDP-43 …. Kind of assay: Luminex, FL TDP-43 on beads. As to the method:
Mice were euthanized and fusion with myeloma cells was performed using splenocytes from four individual mice. Screening for antibodies from the successfully fused hybridoma cell lines were performed as follows. Diluted (1:32) cell culture supernatants were analyzed using Luminex bead-based multiplex assay (Luminex, The Netherlands). Luminex beads were conjugated to FL TDP-43 and with capturing IgGs with anti-mouse IgG-Fc antibodies specific for the IgG1, IgG2a, IgG2b, IgG2c, and IgG3 subclasses (Jackson Immunoresearch, USA). Binding to beads conjugated to FL TDP-43 identified 386 hits derived from mice immunized with the FL TDP-43 liposomal vaccine.
Luminex assays with serial dilution of antibodies were performed as described before to determine half maximal effective concentration (EC50) of binding of antibodies to FL TDP-43. In summary, all tested antibodies bind to full length TDP-43 with high affinity.

The target is the same in assay [5]. Description: SPR 8K, immobilized soluble TDP-43; IgG1. As to the method: The instrument was primed with running buffer PBS-P+ and flow cells (Fc) 1 and 2 of channels 1-8 were activated with a fresh solution of EDC/NHS (Amine Coupling Kit, 1:1 ratio of both reagents, GE Healthcare Life Sciences, BR-1006-33) at 10 µL/min for 420 sec. Soluble TDP-43 (Selvita) was diluted in sodium acetate pH 4.5 to a final concentration of 5 µg/mL and injected for 900 sec with a flow rate of 5 µL/min on Fc 2. All flow cells were quenched with 1 M ethanol amine (GE Healthcare Life Sciences, BR-1006-33), at 10 µL/min for 420 sec. Immobilization levels after ethanolamine quenching were 680 RU on all eight channels. Prior to analysis, two Startup cycles were run. Increasing mAbs concentrations were injected in single-cycle kinetics ranging from 1.2 to 100 nM, prepared from a 3-fold serial dilution in running buffer, with a contact time of 300 sec and a dissociation time of 900 sec at a flow rate of 30 µL/min. Each cycle was followed by one regeneration using 10 mM Glycine-HCl pH 1.7 with a contact time of 30 sec at 30 µL/min, followed by a stabilization period of 300 sec. Results obtained from single-cycle kinetics were double-referenced using the blank Fc 1 and buffer cycles and evaluated using Biacore 8 K evaluation software using the 1:1 kinetic fit model with RI and global Rmax. The following kinetic parameters were obtained: association rate constant (ka), dissociation rate constant (kd), affinity constant (KD) and saturation response (Rmax).

The target in assay [6] is T3, TP-51 peptide (aa 352-414 of SEQ ID NO:1) (human).
T3 construct: Synthetic peptide (Pepscan)
T3 peptide: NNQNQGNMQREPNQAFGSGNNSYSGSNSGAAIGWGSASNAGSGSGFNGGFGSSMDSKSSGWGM
Kind of assay: SPR 8K, mAb captured, TP-51 injected; IgG1. As to the method: The instrument was primed with running buffer PBS-P+. Fc 1-2 of channels 1-8 (8 K) were activated with a fresh solution of EDC/NHS(Amine Coupling Kit, 1:1 ratio of both reagents, GE Healthcare Life Sciences, BR-1006-33) at 10 µL/min for 420 sec and goat anti-human antibody (GE Healthcare Life Sciences, 29234600) was immobilized at 25 µg/mL in 10 mM sodium acetate pH 5 for 420 sec. Next, all Fc were quenched with 1 M ethanol amine(GE Healthcare Life Sciences, BR-1006-33), for 420 sec. Any non-covalently bound antibodies were removed by two regenerations with 10 mM Glycine-HCl pH 1.7 for 30 sec. Immobilization levels were evaluated following ethanolamine quenching (10000 RU for all channels).
Each cycle started with non-covalent capture of humanized variants which were diluted in running buffer to a final concentration of 2 µg/mL and injected for 60 sec with a flow rate of 10 µL/min. TDP-43 mAbs were captured on channels 1-8, leaving Fc 1 as a blank Fc. Capture levels were evaluated following a 120 sec stabilization period after each mAb injection and ranged from 300-500 RU.
Injections of TP-51 peptide (Pepscan) were performed in single-cycle kinetics with increasing concentrations ranging from 1.2-100 nM prepared from serial 3-fold dilutions. Injections were performed with contact times of 300 sec/injection at a flow rate of 25 µL/min. A dissociation phase of 3600 sec followed the final injection. Sensor surface was regenerated by one injection of 10 mM Glycine-HCl pH 1.7 at a flow rate of 10 µL/min for 120 sec, followed by a stabilization period of 300 sec. Results obtained from single-cycle kinetics were double-referenced using the blank Fc 1 and buffer cycles and evaluated by Biacore 8 K evaluation software with 1:1 kinetic fit model with RI and global Rmax. The following kinetic parameters were obtained: association rate constant (ka), dissociation rate constant (kd), affinity constant (KD) and saturation response (Rmax).

Changes are numbered by the printed parent chain.

T2 sequence (Q13148 whole entry): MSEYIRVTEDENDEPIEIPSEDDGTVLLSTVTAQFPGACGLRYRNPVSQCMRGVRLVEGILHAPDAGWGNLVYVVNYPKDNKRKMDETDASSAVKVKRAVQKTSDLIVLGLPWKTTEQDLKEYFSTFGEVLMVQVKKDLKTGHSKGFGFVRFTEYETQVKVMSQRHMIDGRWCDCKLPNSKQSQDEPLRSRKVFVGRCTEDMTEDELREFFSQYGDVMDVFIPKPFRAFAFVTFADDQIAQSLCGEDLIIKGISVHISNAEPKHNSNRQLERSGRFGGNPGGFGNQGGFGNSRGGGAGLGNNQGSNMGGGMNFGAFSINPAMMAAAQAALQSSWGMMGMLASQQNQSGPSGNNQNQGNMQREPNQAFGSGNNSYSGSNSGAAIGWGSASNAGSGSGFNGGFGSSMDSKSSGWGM
T1 sequence (Q13148 whole entry): as above

B1: ACI-7071-809D9-Ab2 (antibody, mouse IgG2b, V domains shown)
VH: QVQLQQSGAELVRPGVSVKISCKGSGYKFTDYSMHWVKQSHTKSLEWIGVISTYYGDTTYNQKFKGKATITVDKSSSTAYMELARLTSEDSAIYYCATYGNFPASFSYWGQGTLVTVSA
VL: DIVMTQAAPSIPVTPGESVSISCRSSKSLLHSNGNTYLYWFLQRPGQSPQLLIYRMSNLASGVPDRFSGSGSGTAFTLRISRVEAEDVGVYYCMQHLEYPFTFGSGTKLEIK
notes: Mouse IgG2b, kappa, from hybridoma; also called 809D9C2
Consider B1, for which the Kd (in general, the concentration at which binding is half-saturated) in assay [1] was 10.6 nM; in assay [3], 2.25 nM. Moreover, the koff – broadly, the rate constant with which the complex falls apart – in assay [1] came to 0.000821 s⁻¹; in assay [3] it was 0.000216 s⁻¹. Moreover, the kon (as a rule, the rate constant with which the complex forms) in assay [1] amounted to 77100 M⁻¹ s⁻¹; in assay [3], 95900 M⁻¹ s⁻¹. Also, the EC50 (usually the concentration needed to bring the measured effect to its halfway point) was 0.017 µg/mL in assay [2] and less than 0.01 nM in assay [4].

B2: ACI-7069-634H10-Ab2 (antibody, mouse IgG2b, V domains shown)
VH: EVQLQQSGAELVKPGASVRLSCTASGFNIKDTYMHWVKQRPEQGLEWIGRIDPANSNTKFDPKFQGKATITSDTSSNTAYLQLSSLTSEDTAVYYCARFYGGSHWYFDVWGAGTTVTVSS
VL: DIKMTQSPSSMYASLGERVTITCKASQDIKSYLSWYQHKPWKSPKALIYYATSLADGVPSRFSGSGSGQDYSLTISSLESDDTATYYCLQQGESPYTFGGGTKLEIK
notes: Mouse IgG2b, kappa, from hybridoma; also called 634H10H7
As to B2, in assay [1], the Kd is 19.7 nM, the koff was 0.000874 s⁻¹ and the kon came out at 44300 M⁻¹ s⁻¹. Besides, in assay [2], the EC50 came out at 0.053 µg/mL. For the same molecule, in assay [3], the dissociation constant Kd was determined as 1.51 nM, the koff was 0.000166 s⁻¹ and the kon came out at 110000 M⁻¹ s⁻¹. The EC50 in assay [4] was less than 0.01 nM.

B3: hACI-7069-633B12-Ab1_H16L14 (IgG1) (antibody, V domains shown)
VH: EVQLVQSGAEVKKPGASVKVSCKASGFTFTEYSMHWVRQAPGQRLEWMGGINPGNAGTSYNQKFKGRVTITVDTSASTAYMELSSLRSEDTAVYYCARESWGQGTTVTVSS
VL: DVVMTQSPLSLPVTLGQPASISCKSSQSLLHSDAKTYLNWLQQRPGQSPRRLIYLVSKLDSGVPDRFSGSGSGTDFTLKISRVEAEDLGVYYCFQGTHFPHTFGQGTKLEIK
notes: Human IgG1 / kappa
B3: in assay [5], the Kd is 0.652 nM, the koff is 2.2e-05 s⁻¹ and the kon was determined as 47000 M⁻¹ s⁻¹. In addition, in assay [6], binding was put at a Kd of 6.4 nM, the koff was found to be 0.0011 s⁻¹ and the kon came to 170000 M⁻¹ s⁻¹.

B4: hACI-7069-633B12-Ab1_H20L19 (IgG1) (antibody, V domains shown)
VH: B3 VH with A24T, M48I
VL: B3 VL with R50K, G62R
notes: Human IgG1 / kappa
Consider B4, for which, in assay [5], the Kd was 0.235 nM, the koff was 1.8e-05 s⁻¹ and the kon came to 47000 M⁻¹ s⁻¹. In assay [6], this molecule registered a Kd of 1.4 nM, a koff of 0.00023 s⁻¹ and a kon of 170000 M⁻¹ s⁻¹.

B5: hACI-7069-633B12-Ab1_H19L18 (IgG1 isotype) (antibody, V domains shown)
VH: B3 VH with E1Q, A24T, M48I
VL: B3 VL with G62R
notes: Human IgG1 / kappa; also called hACI-7069-633B12-Ab1_H19L18 (hIgG1 isotype)
Consider B5, for which, in assay [5], the Kd turned out to be 0.205 nM, the koff is 9.6e-06 s⁻¹ and the kon was determined as 48000 M⁻¹ s⁻¹. In addition, in assay [6], the affinity, expressed as Kd, was 2.8 nM; the koff was 0.00015 s⁻¹; the kon is 53000 M⁻¹ s⁻¹.

B6: hACI-7069-633B12-Ab1_H15L18 (IgG1) (antibody, V domains shown)
VH: B3 VH with E1Q
VL: B3 VL with G62R
notes: Human IgG1 / kappa
For B6, in assay [5], the Kd was determined as 0.113 nM, the koff turned out to be 8.3e-06 s⁻¹ and the on-rate (kon) came to 74800 M⁻¹ s⁻¹.

B7: hACI-7069-633B12-Ab1_H23L20 (IgG1) (antibody, V domains shown)
VH: B3 VH with E1Q, A24T, M48I, A56G
VL: B3 VL with A34G, G62R, F94W
notes: Human IgG1 / kappa
For the molecule B7, in assay [5], the Kd was 0.145 nM, the koff was 6.4e-06 s⁻¹ and the kon was found to be 44000 M⁻¹ s⁻¹. In assay [6], this molecule came in with a Kd of 6.2 nM, a koff of 0.00021 s⁻¹ and a kon of 35000 M⁻¹ s⁻¹.

B8: ACI-7069-631B2-Ab1 (antibody, mouse IgG1, V domains shown)
VH: EVQLQQSGPELVKPGASVKISCKTSGYTFTEYSIHWVKQSHGESLEWIGGINPDNGGTRYNQKFKGKATLTVDKSSSTAYMDLRSLTSEDSAVYYCARESWGQGTTLTVSS
VL: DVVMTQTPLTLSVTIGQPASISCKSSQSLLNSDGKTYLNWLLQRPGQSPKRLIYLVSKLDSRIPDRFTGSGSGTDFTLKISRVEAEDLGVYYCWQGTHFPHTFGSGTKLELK
notes: Mouse IgG1, kappa, from hybridoma; also called 631B2A2
B8: the values for the Kd in assay [1] and in assay [3] were 486 nM and 0.82 nM, respectively. The koff was determined as 0.000774 s⁻¹ in assay [1] and 7.1e-05 s⁻¹ in assay [3]. The kon is 1590 M⁻¹ s⁻¹ in assay [1] and 86100 M⁻¹ s⁻¹ in assay [3]. The EC50 was 0.053 µg/mL in assay [2] and less than 0.01 nM in assay [4].

B9: cACI-7069-633B12-Ab1 (human IgG1 chimeric) (antibody, V domains shown)
VH: B8 VH with Y27F, I34M, E43K, D54N, R59S, D82E
VL: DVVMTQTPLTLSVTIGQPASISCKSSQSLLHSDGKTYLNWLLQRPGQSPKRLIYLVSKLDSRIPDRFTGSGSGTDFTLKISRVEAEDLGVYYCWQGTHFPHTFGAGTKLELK
notes: also called chimeric antibody
As for B9, in assay [5], the Kd came out at 0.15 nM, the koff turned out to be 8.4e-06 s⁻¹ and the kon came out at 58000 M⁻¹ s⁻¹. Further, in assay [6], binding was characterised by a dissociation constant (Kd) of 2.4 nM, the koff was found to be 9.3e-05 s⁻¹ and the kon worked out at 39000 M⁻¹ s⁻¹.

Source of the values: patent publication US20230322908A1 (AC IMMUNE, published 2023).
